Test results reported in patent US20230265217A1 (published 2023).

B1: 6A-3 (VHH)
VHH: EVQLVESGGGLVQPGGSLRLSCAASGFTFSPSWMGWFRQAPGKEREFVATINEYGGRNYADSVKGRFTISADNSKNTAYLQMNSLKPEDTAVYYCARVDRDFDYWGQGTLVTVSS
B2: 3-31 (VHH)
VHH: EVQLVESGGGLVQPGGSLRLSCAASGSTFSINAMGWFRQAPGKEREFVAGITSSGGYTNYADSVKGRFTISADNSKNTAYLQMNSLKPEDTAVYYCAADGVPEYSDYASGPVWGQGTLVTVSS

Target: SARS-CoV-2 S protein trimer (Delta B.1.617.2 India variant) [SPN-C52He] (SARS-CoV-2, UniProt P0DTC2 16-1213)
Assay: SPR

Binder | Kd [nM]
B1 | 0.449
B2 | < 0.016
